Results taken from patent US20220135684A1 (Xencor, published 2022).

What was measured:
human CD28 = biological target: T1, human CD28 (human, UniProt P10747 19-152); assay: Octet (BLI), scFv arm in the bsAb; value told in the text
T1 construct: also called Cluster of Differentiation 28; Tp44

human PDL1 antigen = biological target: T2, human PDL1 antigen (human, UniProt Q9NZQ7 19-238); assay: Biacore (SPR), Fab arm in a bsAb; value told in the text
T2 construct: they are put here

| Binder | Kd (human CD28) | Kd (human PDL1 antigen) |
| --- | --- | --- |
| XENP37561 (bispecific antibody, 1+1 Fab-scFv-Fc format; scFv in VL-linker-VH orientation; also called αPDL1×αCD28 bsAb; 1A7_L1.71_H1.14) heavy: EVQLLESGGGLVQPGGSLRLSCAASGFTFSSYDMSWVRQAPGKRLEWVSTISSGGSFTHYPDSVKGRFTISRDNSKNTLYLQMNSLRAEDTAVYYCVRRSGDWYFDVWGAGTTVTVSSASTKGPSVFPLAPSSKSTSGGTAALGCLVKDYFPEPVTVSWNSGALTSGVHTFPAVLQSSGLYSLSSVVTVPSSSLGTQTYICNVNHKPSDTKVDKKVEPKSCDKTHTCPPCPAPPVAGPSVFLFPPKPKDTLMISRTPEVTCVVVDVKHEDPEVKFNWYVDGVEVHNAKTKPREEEYNSTYRVVSVLTVLHQDWLNGKEYKCKVSNKALPAPIEKTISKAKGQPREPQVYTLPPSREEMTKNQVSLTCDVSGFYPSDIAVEWESDGQPENNYKTTPPVLDSDGSFFLYSKLTVDKSRWEQGDVFSCSVMHEALHNHYTQKSLSLSPGK scFv-Fc: not shown light: EIVLTQSPGTLSLSPGERATLSCRVSSSISSSNLHWYQQKPGQSPRPLIYGTSNLASGVPVRFSGSGSGTDYTLTISRLEPEDFAVYYCQQWSSYPLYTFGGGTKVEIKRTVAAPSVFIFPPSDEQLKSGTASVVCLLNNFYPREAKVQWKVDNALQSGNSQESVTEQDSKDSTYSLSSTLTLSKADYEKHKVYACEVTHQGLSSPVTKSFNRGEC | 37 nM | – |
| αPDL1×αCD28 bsAb with PDL1 binding domain 2G4_H1.12_L1.66 and CD28 binding domain 1A7_H1.14_L1.71 (bispecific antibody) heavy: EVQLLESGGGLVQPGGSLRLSCAASGFTFSVYDMSWVRQAPGKRLEWVSTISSGGSFTHYPDSVKGRFTISRDNSKNTLYLQMNSLRAEDTAVYYCVRRSLDWYFDVWGAGTTVTVSSASTKGPSVFPLAPSSKSTSGGTAALGCLVKDYFPEPVTVSWNSGALTSGVHTFPAVLQSSGLYSLSSVVTVPSSSLGTQTYICNVNHKPSDTKVDKKVEPKSCDKTHTCPPCPAPPVAGPSVFLFPPKPKDTLMISRTPEVTCVVVDVKHEDPEVKFNWYVDGVEVHNAKTKPREEEYNSTYRVVSVLTVLHQDWLNGKEYKCKVSNKALPAPIEKTISKAKGQPREPQVYTLPPSREEMTKNQVSLTCDVSGFYPSDIAVEWESDGQPENNYKTTPPVLDSDGSFFLYSKLTVDKSRWEQGDVFSCSVMHEALHNHYTQKSLSLSPGK scFv-Fc: not shown light: EIVLTQSPGTLSLSPGERATLSCRVSSSIQSTNLHWYQQKPGQSPRPLIYGTSNLATGVPVRFSGSGSGTDYTLTISRLEPEDFAVYYCQQWSSYPLYTFGGGTKVEIKRTVAAPSVFIFPPSDEQLKSGTASVVCLLNNFYPREAKVQWKVDNALQSGNSQESVTEQDSKDSTYSLSSTLTLSKADYEKHKVYACEVTHQGLSSPVTKSFNRGEC | – | 0.86 nM |
| αPDL1×αCD28 bsAb with PDL1 binding domain 2G4_H1.12_L1.24 and CD28 binding domain 1A7_H1.14_L1.71 (bispecific antibody, also called XENP38512; XENP40036) heavy: EVQLLESGGGLVQPGGSLRLSCAASGFTFSVYDMSWVRQAPGKRLEWVSTISSGGSFTHYPDSVKGRFTISRDNSKNTLYLQMNSLRAEDTAVYYCVRRSLDWYFDVWGAGTTVTVSSASTKGPSVFPLAPSSKSTSGGTAALGCLVKDYFPEPVTVSWNSGALTSGVHTFPAVLQSSGLYSLSSVVTVPSSSLGTQTYICNVNHKPSDTKVDKKVEPKSCDKTHTCPPCPAPPVAGPSVFLFPPKPKDTLMISRTPEVTCVVVDVKHEDPEVKFNWYVDGVEVHNAKTKPREEEYNSTYRVVSVLTVLHQDWLNGKEYKCKVSNKALPAPIEKTISKAKGQPREPQVYTLPPSREEMTKNQVSLTCDVSGFYPSDIAVEWESDGQPENNYKTTPPVLDSDGSFFLYSKLTVDKSRWEQGDVFSCSVMHEALHNHYTQKSLSLSPGK scFv-Fc: not shown light: EIVLTQSPGTLSLSPGERATLSCRVSSSIQSTNLHWYQQKPGQSPRPLIYGTSVLATGVPVRFSGSGSGTDYTLTISRLEPEDFAVYYCQQWSSYPLYTFGGGTKVEIKRTVAAPSVFIFPPSDEQLKSGTASVVCLLNNFYPREAKVQWKVDNALQSGNSQESVTEQDSKDSTYSLSSTLTLSKADYEKHKVYACEVTHQGLSSPVTKSFNRGEC | – | 0.17 nM |
| αPDL1×αCD28 bsAb with PDL1 binding domain 2G4_H1.12_L1.68 and CD28 binding domain 1A7_H1.14_L1.71 (bispecific antibody) heavy: EVQLLESGGGLVQPGGSLRLSCAASGFTFSVYDMSWVRQAPGKRLEWVSTISSGGSFTHYPDSVKGRFTISRDNSKNTLYLQMNSLRAEDTAVYYCVRRSLDWYFDVWGAGTTVTVSSASTKGPSVFPLAPSSKSTSGGTAALGCLVKDYFPEPVTVSWNSGALTSGVHTFPAVLQSSGLYSLSSVVTVPSSSLGTQTYICNVNHKPSDTKVDKKVEPKSCDKTHTCPPCPAPPVAGPSVFLFPPKPKDTLMISRTPEVTCVVVDVKHEDPEVKFNWYVDGVEVHNAKTKPREEEYNSTYRVVSVLTVLHQDWLNGKEYKCKVSNKALPAPIEKTISKAKGQPREPQVYTLPPSREEMTKNQVSLTCDVSGFYPSDIAVEWESDGQPENNYKTTPPVLDSDGSFFLYSKLTVDKSRWEQGDVFSCSVMHEALHNHYTQKSLSLSPGK scFv-Fc: not shown light: EIVLTQSPGTLSLSPGERATLSCRVSSSIQSTNLHWYQQKPGQSPRPLIYGTSNLASGVPVRFSGSGSGTDYTLTISRLEPEDFAVYYCQQWSSYPLYTFGGGTKVEIKRTVAAPSVFIFPPSDEQLKSGTASVVCLLNNFYPREAKVQWKVDNALQSGNSQESVTEQDSKDSTYSLSSTLTLSKADYEKHKVYACEVTHQGLSSPVTKSFNRGEC | – | 0.8 nM |
| XENP37559 (bispecific antibody, 1+1 Fab-scFv-Fc format; also called αPDL1×αCD28 bsAb; 1A7_H1_L1.71) heavy: EVQLLESGGGLVQPGGSLRLSCAASGFTFSSYDMSWVRQAPGKRLEWVSTISSGGSFTHYPDSVKGRFTISRDNSKNTLYLQMNSLRAEDTAVYYCVRRSGDWYFDVWGAGTTVTVSSASTKGPSVFPLAPSSKSTSGGTAALGCLVKDYFPEPVTVSWNSGALTSGVHTFPAVLQSSGLYSLSSVVTVPSSSLGTQTYICNVNHKPSDTKVDKKVEPKSCDKTHTCPPCPAPPVAGPSVFLFPPKPKDTLMISRTPEVTCVVVDVKHEDPEVKFNWYVDGVEVHNAKTKPREEEYNSTYRVVSVLTVLHQDWLNGKEYKCKVSNKALPAPIEKTISKAKGQPREPQVYTLPPSREEMTKNQVSLTCDVSGFYPSDIAVEWESDGQPENNYKTTPPVLDSDGSFFLYSKLTVDKSRWEQGDVFSCSVMHEALHNHYTQKSLSLSPGK scFv-Fc: not shown light: EIVLTQSPGTLSLSPGERATLSCRVSSSISSSNLHWYQQKPGQSPRPLIYGTSNLASGVPVRFSGSGSGTDYTLTISRLEPEDFAVYYCQQWSSYPLYTFGGGTKVEIKRTVAAPSVFIFPPSDEQLKSGTASVVCLLNNFYPREAKVQWKVDNALQSGNSQESVTEQDSKDSTYSLSSTLTLSKADYEKHKVYACEVTHQGLSSPVTKSFNRGEC | 180 nM | – |
| αPDL1×αCD28 bsAb with PDL1 binding domain 2G4_H1.12_L1.14 and CD28 binding domain 1A7_H1.14_L1.71 (bispecific antibody, also called XENP40409 (non-Xtend analog of XENP40706)) heavy: EVQLLESGGGLVQPGGSLRLSCAASGFTFSVYDMSWVRQAPGKRLEWVSTISSGGSFTHYPDSVKGRFTISRDNSKNTLYLQMNSLRAEDTAVYYCVRRSLDWYFDVWGAGTTVTVSSASTKGPSVFPLAPSSKSTSGGTAALGCLVKDYFPEPVTVSWNSGALTSGVHTFPAVLQSSGLYSLSSVVTVPSSSLGTQTYICNVNHKPSDTKVDKKVEPKSCDKTHTCPPCPAPPVAGPSVFLFPPKPKDTLMISRTPEVTCVVVDVKHEDPEVKFNWYVDGVEVHNAKTKPREEEYNSTYRVVSVLTVLHQDWLNGKEYKCKVSNKALPAPIEKTISKAKGQPREPQVYTLPPSREEMTKNQVSLTCDVSGFYPSDIAVEWESDGQPENNYKTTPPVLDSDGSFFLYSKLTVDKSRWEQGDVFSCSVMHEALHNHYTQKSLSLSPGK scFv-Fc: not shown light: EIVLTQSPGTLSLSPGERATLSCRVSSSIQSSNLHWYQQKPGQSPRPLIYGTSNLASGVPVRFSGSGSGTDYTLTISRLEPEDFAVYYCQQWSSYPLYTFGGGTKVEIKRTVAAPSVFIFPPSDEQLKSGTASVVCLLNNFYPREAKVQWKVDNALQSGNSQESVTEQDSKDSTYSLSSTLTLSKADYEKHKVYACEVTHQGLSSPVTKSFNRGEC | – | 0.42 nM |
| XENP37560 (bispecific antibody, 1+1 Fab-scFv-Fc format; also called αPDL1×αCD28 bsAb; 1A7_H1.1_L1.71) heavy: EVQLLESGGGLVQPGGSLRLSCAASGFTFSSYDMSWVRQAPGKRLEWVSTISSGGSFTHYPDSVKGRFTISRDNSKNTLYLQMNSLRAEDTAVYYCVRRSGDWYFDVWGAGTTVTVSSASTKGPSVFPLAPSSKSTSGGTAALGCLVKDYFPEPVTVSWNSGALTSGVHTFPAVLQSSGLYSLSSVVTVPSSSLGTQTYICNVNHKPSDTKVDKKVEPKSCDKTHTCPPCPAPPVAGPSVFLFPPKPKDTLMISRTPEVTCVVVDVKHEDPEVKFNWYVDGVEVHNAKTKPREEEYNSTYRVVSVLTVLHQDWLNGKEYKCKVSNKALPAPIEKTISKAKGQPREPQVYTLPPSREEMTKNQVSLTCDVSGFYPSDIAVEWESDGQPENNYKTTPPVLDSDGSFFLYSKLTVDKSRWEQGDVFSCSVMHEALHNHYTQKSLSLSPGK scFv-Fc: not shown light: EIVLTQSPGTLSLSPGERATLSCRVSSSISSSNLHWYQQKPGQSPRPLIYGTSNLASGVPVRFSGSGSGTDYTLTISRLEPEDFAVYYCQQWSSYPLYTFGGGTKVEIKRTVAAPSVFIFPPSDEQLKSGTASVVCLLNNFYPREAKVQWKVDNALQSGNSQESVTEQDSKDSTYSLSSTLTLSKADYEKHKVYACEVTHQGLSSPVTKSFNRGEC | 96 nM | – |
| XENP36233 (bispecific antibody, 1+1 Fab-scFv-Fc format, heterodimeric IgG1 Fc with FcγR ablation variants; also called αPDL1×αCD28 bsAb; 2G4 H1L1 Fab × 1A7_H1.14_L1 scFv) heavy: EVQLLESGGGLVQPGGSLRLSCAASGFTFSSYDMSWVRQAPGKRLEWVSTISSGGSFTHYPDSVKGRFTISRDNSKNTLYLQMNSLRAEDTAVYYCVRRSGDWYFDVWGAGTTVTVSSASTKGPSVFPLAPSSKSTSGGTAALGCLVKDYFPEPVTVSWNSGALTSGVHTFPAVLQSSGLYSLSSVVTVPSSSLGTQTYICNVNHKPSDTKVDKKVEPKSCDKTHTCPPCPAPPVAGPSVFLFPPKPKDTLMISRTPEVTCVVVDVKHEDPEVKFNWYVDGVEVHNAKTKPREEEYNSTYRVVSVLTVLHQDWLNGKEYKCKVSNKALPAPIEKTISKAKGQPREPQVYTLPPSREEMTKNQVSLTCDVSGFYPSDIAVEWESDGQPENNYKTTPPVLDSDGSFFLYSKLTVDKSRWEQGDVFSCSVMHEALHNHYTQKSLSLSPGK scFv-Fc: not shown light: EIVLTQSPGTLSLSPGERATLSCRVSSSISSSNLHWYQQKPGQSPRPLIYGTSNLASGVPVRFSGSGSGTDYTLTISRLEPEDFAVYYCQQWSSYPLYTFGGGTKVEIKRTVAAPSVFIFPPSDEQLKSGTASVVCLLNNFYPREAKVQWKVDNALQSGNSQESVTEQDSKDSTYSLSSTLTLSKADYEKHKVYACEVTHQGLSSPVTKSFNRGEC | 240 nM | – |
| XENP37412 (bispecific antibody, 1+1 Fab-scFv-Fc format; scFv in VL-linker-VH orientation; also called αPDL1×αCD28 bsAb; 1A7_L1_H1.14) heavy: EVQLLESGGGLVQPGGSLRLSCAASGFTFSSYDMSWVRQAPGKRLEWVSTISSGGSFTHYPDSVKGRFTISRDNSKNTLYLQMNSLRAEDTAVYYCVRRSGDWYFDVWGAGTTVTVSSASTKGPSVFPLAPSSKSTSGGTAALGCLVKDYFPEPVTVSWNSGALTSGVHTFPAVLQSSGLYSLSSVVTVPSSSLGTQTYICNVNHKPSDTKVDKKVEPKSCDKTHTCPPCPAPPVAGPSVFLFPPKPKDTLMISRTPEVTCVVVDVKHEDPEVKFNWYVDGVEVHNAKTKPREEEYNSTYRVVSVLTVLHQDWLNGKEYKCKVSNKALPAPIEKTISKAKGQPREPQVYTLPPSREEMTKNQVSLTCDVSGFYPSDIAVEWESDGQPENNYKTTPPVLDSDGSFFLYSKLTVDKSRWEQGDVFSCSVMHEALHNHYTQKSLSLSPGK scFv-Fc: not shown light: EIVLTQSPGTLSLSPGERATLSCRVSSSISSSNLHWYQQKPGQSPRPLIYGTSNLASGVPVRFSGSGSGTDYTLTISRLEPEDFAVYYCQQWSSYPLYTFGGGTKVEIKRTVAAPSVFIFPPSDEQLKSGTASVVCLLNNFYPREAKVQWKVDNALQSGNSQESVTEQDSKDSTYSLSSTLTLSKADYEKHKVYACEVTHQGLSSPVTKSFNRGEC | 286 nM | – |
